The nature of the data set: yeast display, Sf9 membrane polyspecificity reagent, FACS + sequencing; frameworks hold sequencing errors. An outline of the steps: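 Using colony PCR, genes from sorted yeast display clones were amplified, then sequenced on MiSeq at 2 × 250 and filtered by CDR length. The clones had been stained with 10% biotinylated, detergent-solubilized Sf9 membrane reagent for 1 hour at 4 °C and sorted by FACS into low and high (top ~1%) gates on anti-HA and streptavidin fluorescence. Polyreactivity labels come from the gate of origin.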
As for “QVQLVESGGGLVQAGGSLRLSCAASGLTFPHNAMGWYRQAPGKERELVAAITSSGCSTYYADSVKGRFTISRDNAMNSVYLQMNSLKPEDTAVYYCAKRDGTDRLDDYWGQGTQVTVSS”, the “polyreactivity (PSR sort gate)” value was “high polyreactivity”. On to “QVQLVESGGGLVQAGGSLRLSCAASGFIFGVYDMGWSRQAPGKERELVAAIDSVGSTYYADSVKGRFTISRDNAYNTVYLQMNSLKPEDTAVYYCAKDGSYQAYGYWGQGTQVTVSS”, for which the “polyreactivity (PSR sort gate)” value is recorded as “low polyreactivity”. With “QVQLVESGGGLVQAGGSLRLSCAASGRIFYAYTMGWYRQAPGKERELVAAISGSGSTYYADSVKGRFTISRDNAKNNVYLQMNSLKPEDTAVYYCAKRYRFHFWGQGTQVTVSS”, the “polyreactivity (PSR sort gate)” value is reported as “low polyreactivity”.

“QVQLVESGGGLVQAGGSLRLSCAASGFTLLTYVMGWYRQAPGKERELVAAITSSGGRTYYADSVKGRFTISRDNAKNTVYLQMNSLKPEDTAVYYCAAVGWGSSYRARYGYWGQGTQVTVSS”: the “polyreactivity (PSR sort gate)” value was “high polyreactivity”. Turning to “QVQLVDSGGGLVQAGGSLRLSCAASGITFDHYAMGWSRQAPGKEREFVAAIDDIGGDTYYADSVKGRFTISRDNAKNTVYLQMNSLKPEATAVYYCAADYGYYSRFYYWGQGTQVTVSS”, the “polyreactivity (PSR sort gate)” value is recorded as “low polyreactivity”. Take “QVQLVESGGGLVQAGGSLRLSCAASGSTFVYYAMGWYRQAPGKERELVAAITASGGGTYYADSVKGRFTISRDNAKNTVYLQMNSLKPEDTAVYYCNRGYDYWGQGTQVTVSS”: the “polyreactivity (PSR sort gate)” value is “low polyreactivity”.

“QVQLVESGGGLVQAGGSLRLSCAASGRTFGKYAMGWYRQAPGKERELVAAISSGGTTYYADSVKGRFTISRDNAKNTVYLQMNSLKPEDTAVYYCAADPRYPYNYWGQGTQVTVSS”: the “polyreactivity (PSR sort gate)” value is “low polyreactivity”.

Take “QVQLVESGGGLVQAGGSLRLSCAASGRTFLVYTMGWYREAPGKERELVAAISWSDGSTYYADSVKGRFTISRDNAKNTVYLQMNSLKPEDTADYYCAARRTGYLYRYGYWGQGTQVTVSS”: the “polyreactivity (PSR sort gate)” value is on record as “low polyreactivity”. To “QVQLVESGGGLVQAGGSLRLSCAASGRTFKPYAMGWYRQAPGKERELVAAISSGVSTHYADSVKGRFTISRDNAKNTVYLQMNSLKPEDTAVYYCAADYWVNYWFDYWGQGTQVTVSS” belongs “low polyreactivity”; to “QVQLVESGGGFVQAGGSLRLSCAASGRTFRYYAMGWYIQAPGKERELVASISSSGARTYYADSVKGRFTISRDNAKNTVYLQMNSLNPDDTAVYYCNARYSTTYYGTIYRGMDYWGQGTQVTVSS”, “high polyreactivity”. On to “QVQLVESGGGLVQAGGSLRLSCAASGRTFNVNAMGWYRQAPGIERELVATISSAASTNYADSVKGRFTISRDNAKNTVYLQMNSLKPEDTAVYYCNAAFYKEYYYWGQGTQVTVSS”, for which the “polyreactivity (PSR sort gate)” value was “low polyreactivity”. To “QVQLVESGGGLVQAGGSLRLSCAASGSIFSTYAMGWYRQAPGKERELVATIRRGGSTYYADSVKGRFTISRDNAKNTVYLQMNSLKPEETAVYYCAGTVSSYPYYRYYTWGQGTQVTVSS” belongs “high polyreactivity”; to “QVQLVESGGGLVQAGGSLRFSCAASGFIFTLYAMGWYRQAPGKERELVASIRGSGGNTYYADSVKGRFTISRDNEKNTVYLQMNSLKPEDTAVYYCAARTYRRPYYSWGQGTQVTVSS”, “high polyreactivity”; to “QVQLVESGGGLVQAGGSLRLSCAATGSISGYYAMGWYRQAPGKERELVASIRYTGARTYYADSVKGRFTISRDNAKNTVYLQMNSLKPEDTAVYACAADVKRDRVWGGDYWGQGTQVTVSS”, “low polyreactivity”. As to “QVQLVESGGGLVQAGGSLSLICAASRFTFDSYAMGWYRQAPGKERELVAAINYSGGRTDYADSVKGRFTISRDNAKNTVYLQMNSLKPVDTAVYYCAAKGVRWGQGTQVTVSS”, the “polyreactivity (PSR sort gate)” value is “high polyreactivity”.

Take “QVQLVESGGGLVQAGGSLRLSCAASGRTFYLYAMGWYRQAPGKERELVAAITWRGGSTYYADSVKGRFTISRDNAKNTVYLQMNSLKPEDTAVYYCAAVTFFYYSAVRYEYYYWGQGTQVTVSS”: the “polyreactivity (PSR sort gate)” value is on record as “high polyreactivity”. To “QVQHVESGGGLVQAGGSLRLSCAASGRTLYNYAMGWYRQAPGKEWELVAAISGSGGSTYYADSVKGRFTISRDNAKNTVYLQMNSLKPEDTEVYFCAKYRGIYPDVRGTYYWGQGTQVTVSS” belongs “high polyreactivity”; to “QVQLVESGGGLVQAGGSLRLSCAASGGIFKYNAMGWYRQSPGKERELVAAIDTSGGSTYYADSVKGRFTISRDNAKNTVYLQMNSLKPEDTAVYYCAAELGLAQYYYWGQGTQVTVSS”, “low polyreactivity”; to “QVQLVESGGGLVQAGGSLRLSCAASGYIFGGNTLGWYRQAPGKERELVAAISYSGTSTYYADSVKGRFTISRDNAKNTVYLQMNSLKPEDTAVYYCAARERWYGSYYWGQGTQVTVSS”, “high polyreactivity”. Turning to “QGQLVESGGGLVQAGGSLRLSCAASGRIFSYNTMGWSRQAPGKERELVAAISTSGGSPYYADSVKGRFTISRDNAKNTVYLQMNSLTPEDTAVYYCNTVWTFRTSSNYDFWGQGTQVTVSS”, the “polyreactivity (PSR sort gate)” value was “low polyreactivity”. As for “QVQLVESGGGLVQAGGSLRLSCAASGFIFGPNAMGWYRQAPGKERELVAAIRWSSGTTYYADSVKGRFTISRDNAKNTVSLQMNSLKPEDTAVYYCAAGPYVSYYWGQGTQVTVSS”, the “polyreactivity (PSR sort gate)” value is given as “low polyreactivity”. “QVQHVESGGGLVQAGGSLRLSCAASGSTFFRYAKGWYRQAPGTERELVAAISYSGDSTYYADSVKGRFTISRDNAKNTVYLQMNSLKPEDSAVYYCNAVYFRYRYNYWGQGTQVTVSS”: the “polyreactivity (PSR sort gate)” value is “high polyreactivity”.

For the sequence “QVQLVESGGGLVQAGASLRLSCAASGFTFYSYDMGWYRQAPGKERELVAVITERGSSTYYADSVKGRFTISRDNAKNTVYLQMNSLKPEDTAVYYCAAYSEYYGVYYWGQGTLVTVSS”, the “polyreactivity (PSR sort gate)” value is listed as “low polyreactivity”. As to “QVQLVESGGGLVQAGGSLRLSCAASGRTFNKNSMGWYRQAPGKERELVAAITTGGGTYYADSVKGRFTISRDNAKNTVYLQMNSLKPEDTAVYYCAARRRRWSGYWGQGTQVTVSS”, the “polyreactivity (PSR sort gate)” value was “high polyreactivity”.

In the case of “QVQLEESGGGLVQAGGSLRLICAASGLTFPPNSMRWYRQATGKERELVADSGGSTNYADSVKGRFTISRDNAKNNVYLQMNSLKPEDTAVYYCAAPPYSDGQWDDYWGQGTQVTVSS”, the “polyreactivity (PSR sort gate)” value is recorded as “low polyreactivity”. With “QVQLVESGGGLVQAGGSLRLSCAASGFIFRPYAMGWYRQAPGKERELVAALTGGGSTYYADSVKGRFTISRDNAKNTVYLQMNSLKPEDTAVYYCNADRRRRSGGFAAWHFQRNDYWGQGTQVSVSS”, the “polyreactivity (PSR sort gate)” value is recorded as “low polyreactivity”.

With “QVQLVESGGGLVQAGGSLRLSCAASGSTSVVNAMGWSRQAPGKERELVAVITISAVSTYYADSVKGRFTISRDNAKNTVYLQMNSLKPEDTAVYYCAARSYVIYDNFEYDYWGQGTQVTVSS”, the “polyreactivity (PSR sort gate)” value is “high polyreactivity”. “QVQLVESGGGLVQAGGSLRLSCAASGRIFDLNAMGWYRQAPGKERELVAAITNTGSTNYADSVKGRFTISRDNAKNTVYLQMNSLKPEDTAVYYCARTYWLRYSGYRDDEYDYWGQGTQVTVSS”: the “polyreactivity (PSR sort gate)” value is on record as “low polyreactivity”. With “QVQLVESGGGLVQAGGSLRLSCAASGSTSSDYAMGWYRQPPGKERELVASISRSGGSTNYADSVKGRFTISRDNAKNTVYLQMNSLKPEDTAVYYCAARQSYRYYWGKGTQVTVSS”, the “polyreactivity (PSR sort gate)” value is reported as “high polyreactivity”. Consider “QVQLVESGGGLVQAGGSLRLSCAASGFTFVQYAMGWYRQAPGKERELVATISKSGGITYYADSVKGRFTISRDNAKNTVYLQMNSLKPEDNAVYYCAAAWYYSSRGFHATWGHDYWGQGTQVTVSS”, for which the “polyreactivity (PSR sort gate)” value is “low polyreactivity”. To “QVQLVESGGGLVQAGGSLRLSCAASGITSYPYAMGWYRQAPGKERELVAAISKRGGGTYYADSVKGRFTISRDNAKNTVYLQMNSLKPEDTAVYYCAKSWGPTTYKIVPAYGYWGQGTQVTVSS” belongs “high polyreactivity”. Take “QVQLVESGGGLVQAGGSLRLSCAASGRIFYQNAMGWYRQAPGKERELVAAISSSGDSTYADSVKGRFTISRDNAKNTVYLQMNSLKPEDTAVYYCAAGVGWEFDYWRQGTQVTVSS”: the “polyreactivity (PSR sort gate)” value is listed as “low polyreactivity”. Regarding “QVQLVESGGGLVQAGGSLRLSCAASGSTFIGNAMGWYRQAPGKEREFVATISQNGGRTYYADSVKGRFTISRDNAKNTVYLQMNSLKPEDTAVYYCAADDWRWGYDYWGQGTQVTVSS”, the “polyreactivity (PSR sort gate)” value is on record as “high polyreactivity”.

For “QVQLVESGGGLVQDGGSLPLSCAASGHIFIYYTMGWYRQAPGKERELVAGITIGGSTNYADSVKGRFTISRDNAQNTVYLQMNSLKPEDTAVYYCSTTWYLVASWYVAIFDYWGQGTQVTVSS”, the “polyreactivity (PSR sort gate)” value is “low polyreactivity”. As for “QVQLVESGGGLVQAGGSLRLSCAASGRIFATNAMGWYRQAPGKERELVATITRSAGRTYYADSVKGRFTISRDTAKNTVYLQMNSLKPEDTAVYYCAASYWDTEPGYREYDYWGQGTQVTVSS”, the “polyreactivity (PSR sort gate)” value is reported as “low polyreactivity”. To “QVQLVESGGGLDQAGGSLRLSCAASGFIFFINDMGWYRQAPGKERELVAAISWSGGSTYYADSVKGRFTISRDNAKNTVYLQMNSLKPEDTAVYYCNTDVPTAQYDYWGQGTQVTVSS” belongs “low polyreactivity”; to “QVQLVESGGGLVQAGGSLRLSCAASGSTFSSYAMGWYRPAPGKERELVARISSSGGRTSYADSVKGRFTISRDHAKNTVYLQMNSLKAEDTAVSYCAAEDQYYRYFFSYEYWGQGTQVTVSS”, “high polyreactivity”. With “QVQLVESGGGLVQAGGSLRLSCAASGSIFRNYAMGLYRQAPGKERELVAAISSRGGTTHYADSVKGRFTISRDNAKNTVYLQMNSLKPEDTAVYYCAADYYLATNPAPLAAGRGYWGQGTQVTVSS”, the “polyreactivity (PSR sort gate)” value is reported as “high polyreactivity”. “QVQLVESGGGLVQAGGSLRLTCAASGRIFSYYAMGWYRPAPGKERELVAAISSSGGSTYYADSVKGRFTISRDNAKNTVYLQMNSLKPEDTAVYDCRVYTRGEYYSWGQGTQVTVSS”: the “polyreactivity (PSR sort gate)” value is “high polyreactivity”. To “QVQLVDSGGGLVQAGGSLRLSCAASGSTSLKNAMGWSRQAPGKERELVAAISSGGSTYYADSVKGRFTISRDNAKNTVYLLMNSLKPEDTAVYYCAAKYLRGLGYWGQGTQVTVSS” belongs “high polyreactivity”; to “QVHLVESGGGLVQEGGSLRLSCAASGIIFLWYTMGWYRQAPGKERELVATISWGGGSTYADSVNGRFTISRDNAKNTVYIQMYILQPEDTAVYYCAADNRDFRGQGYDYWGQGTQVTVSS”, “low polyreactivity”.

Values taken from the nanobody polyreactivity screen of Harvey et al. (2022).
